Test results taken from patent publication US20140179593A1 (published 2014).
Positions of bridges follow the written chain, without caps; N, C: chain ends. Non-standard residues stand in square brackets, D forms with d. S5 = C=CCCC[C@](C)(N)C(=O)O

Experiments:
[1] = target: T1, hDcn1^P (residues 62 to the C-terminal residue 259 of hDcn1, aka SCCRO or DCUN1D1) (Homo sapiens, UniProt Q96GG9 62-259); test: ITC; against Acetyl-hUbc12^1-12
T1 construct: Expressed as a GST fusion in E. coli; GST released by TEV protease; also called DCUN1D1^P; PONY domain of hDcn1
Method: (§1) Specifically, Phe5 and Gln9 were replaced with (S)-2-(4′-pentenyl) alanine and these side-chains were covalently linked to test the effect of “stapling” an acetylated Ubc12 peptide into a helix (Bird et al. (2008) Methods Enzymol 446:369-386).
(§2) Protein samples were buffer matched by desalting over a NAP-5 column (GE Healthcare) into 50 mM Hepes, 125 mM NaCl, 1 mM BME, pH 7.0 (ITC buffer). Peptides were dissolved by weight to a final concentration of 10 mM in ITC buffer and diluted further in ITC buffer as required for the experiments. […] The peptide ligands (4 mM) were constantly injected (1.5 μl). The interval time between each injection was 3 minutes and the duration of each injection was 3 seconds. […] Peptide ligands (250 μM) were constantly injected (2.5 μl). The interval time between each injection was three minutes and the duration of each injection was 5 seconds. […] The interval time between each injection was 3 minutes and the duration of each injection was 5 seconds. Obtained spectra were evaluated using Origin (V 7.0) to determine heats of binding and Kd values.

[2] = target: T2, hE1 for Nedd8 (APPBP1-UBA3, NAE1-UBA3) (Homo sapiens, UniProt Q13564 18-534; Q8TBC4 22-463, limits assumed); test: not named in the sentence (ITC in Table 25)
T2 construct: Heterodimer of NAE1 and UBA3, expressed in E. coli as described previously
T2 sequence 1: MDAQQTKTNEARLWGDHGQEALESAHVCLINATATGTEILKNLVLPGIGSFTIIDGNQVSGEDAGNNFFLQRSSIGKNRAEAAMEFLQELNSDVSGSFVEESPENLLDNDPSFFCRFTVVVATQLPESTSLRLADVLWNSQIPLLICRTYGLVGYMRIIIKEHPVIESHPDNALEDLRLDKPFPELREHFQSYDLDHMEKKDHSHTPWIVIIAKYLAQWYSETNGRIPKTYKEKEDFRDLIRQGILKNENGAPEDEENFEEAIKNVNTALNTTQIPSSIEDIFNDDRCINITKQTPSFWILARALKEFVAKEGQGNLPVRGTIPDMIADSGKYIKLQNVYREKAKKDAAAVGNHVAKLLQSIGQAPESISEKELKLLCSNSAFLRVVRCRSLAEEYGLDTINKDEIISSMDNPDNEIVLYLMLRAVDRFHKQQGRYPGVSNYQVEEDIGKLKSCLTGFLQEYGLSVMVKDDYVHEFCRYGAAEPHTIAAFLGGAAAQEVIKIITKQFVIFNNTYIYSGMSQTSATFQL
T2 sequence 2: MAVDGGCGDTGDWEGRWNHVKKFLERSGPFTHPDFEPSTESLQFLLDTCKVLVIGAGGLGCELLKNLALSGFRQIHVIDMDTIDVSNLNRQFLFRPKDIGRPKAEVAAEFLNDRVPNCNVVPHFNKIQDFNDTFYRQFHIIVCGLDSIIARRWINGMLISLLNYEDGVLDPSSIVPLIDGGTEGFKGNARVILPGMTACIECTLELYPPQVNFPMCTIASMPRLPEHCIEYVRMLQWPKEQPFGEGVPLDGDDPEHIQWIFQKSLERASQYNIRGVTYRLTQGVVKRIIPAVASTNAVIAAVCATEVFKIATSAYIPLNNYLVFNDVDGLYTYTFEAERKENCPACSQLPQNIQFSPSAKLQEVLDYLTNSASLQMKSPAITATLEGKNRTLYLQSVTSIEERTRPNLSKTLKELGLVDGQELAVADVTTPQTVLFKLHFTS
Method: as §1, §2

T1 sequence (Q96GG9 62-259): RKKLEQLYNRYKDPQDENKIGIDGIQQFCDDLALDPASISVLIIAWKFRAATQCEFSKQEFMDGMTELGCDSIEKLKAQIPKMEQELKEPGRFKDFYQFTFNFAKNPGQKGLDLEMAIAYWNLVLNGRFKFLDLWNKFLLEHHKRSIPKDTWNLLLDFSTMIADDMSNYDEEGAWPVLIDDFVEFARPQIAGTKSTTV

fold improvement of binding over the unstapled peptide [1]: 14 fold | binding result [2]: no binding
B1: Acetyl-hUbc12^1-12(5:9Staple) (peptide)
peptide: Ac-MIKL[S5]SLK[S5]QKK-NH2
modifications: staple 5-9
notes: Printed Ac-MIKLXSLKXQKK-NH2, X = 2-(4-pentenyl)alanine; also called stapled helical peptide
